Assay results reported in US20040005543, “Compositions and methods for binding agglomeration proteins” (published 2004).

Assays:
[1] = target: T1, hrPrP23-144 (N-terminal portion) (Homo sapiens, UniProt P04156 P04156:23-144); experiment: filter; 20 nM protein, Buffer B with tRNA; settings: tags: provided by Man-Sun Sy, Case Western; label: internal 32P
[2] = target: hrPrP90-231 (C-terminal portion) (Homo sapiens, UniProt P04156 P04156:90-231); experiment: filter; 20 nM protein; no detectable binding; settings: tags: provided by Man-Sun Sy, Case Western, label: internal 32P
[3] = target: BSA (bovine serum albumin) (UniProt P02769 P02769:25-607); experiment: filter; Buffer A with 10 ng/uL tRNA; background level; settings: tags: Ultra-pure BSA, Ambion; label: internal 32P
lysozyme = lysozyme (UniProt P00698 P00698:19-147); experiment: filter; 2 nM RNA, 20 nM protein, Buffer A with 10 ng/uL tRNA; background level; settings: label: internal 32P
[4] = target: T2, hrPrP23-231 (recombinant human prion protein, full length) (Homo sapiens, UniProt P04156 P04156:23-231); experiment: filter; with 10 ng/uL tRNA; 250 mM NaCl, 37 C; settings: tags: provided by Man-Sun Sy, Case Western; label: internal 32P
[5] = target: T2, hrPrP23-231 (recombinant human prion …); experiment: filter; no tRNA; 2 mM MgCl2, 250 mM NaCl, 37 C; settings: tags: provided by Man-Sun Sy, Case Western; label: internal 32P
[6] = target: T1, hrPrP23-144 (N-terminal portion); experiment: filter; 20 nM protein, no tRNA; settings: tags: provided by Man-Sun Sy, Case Western; label: internal 32P
[7] = target: T2, hrPrP23-231 (recombinant human prion …); experiment: filter; […]; 2 mM MgCl2, 250 mM NaCl, 37 C; […]; settings: tags: provided by Man-Sun Sy, Case Western; label: internal 32P; G4 (AP1 insert)

B1: RQ11+12 (ssRNA)
RNA: GGGGUUUCCAACCGGAAUUUGAGGGAUGCCUAGGCAUCCCCCGUGCGUCCCUUUACGAGGGAUUGUCGACUCUAGUCGACGUCUGGGCGAAAAAUGUACGAGAGGACCUUUUCGGUACAGACGGUACCUGAGGGAUGCCUAGGCAUCCCCCGCGCCGGUUUCGGACCUCCAGUGCGUGUUACCGCACUGUCGACCC
Q: Does B1 bind [1]?
A: Result: binds

Q: Does B1 bind [2]?
A: Result: no binding

Q: Does B1 bind [3]?
A: Result: no binding

Q: Does B1 bind (lysozyme)?
A: Result: no binding

Q: How did the Kd [4] turn out when GGGAAUUUGAGGACGAUGGUAAGUGG (ssRNA) [AP46] was run?
A: The Kd was 100 nM.

Q: What about the Kd [5] of the same binder?
A: The Kd was 14 nM.

B2: RQT157 (ssRNA)
RNA: GGGGUUUCGAACCGGAAUUUGAGGGAUGCCUAGGCAUCCCCCGUGCGUCCCUUUACGAGGGAUUGUCGACUCUAGAGGAUCCGGUACCUGAGGGAUGCCUAGGCAUCCCCGCGCGCCGGUUUCGGACCUCCAGUGCGUGUUACCGCACUGUCGACCC
Q: B2 was tested. Which Kd [5] did it give?
A: The Kd was 56 nM.

B3: MNV (ssRNA)
RNA: GGGUUCAUAGCCUAUUCGGCUUUUAAAGGACCUUUUUCCCUCGCGUAGCUAGCUACGCGAGGUGACCCCCCGAAGGGGGGUGCCCC
Q: Does B3 bind [2]?
A: Result: no binding

Q: Does B3 bind [6]?
A: Result: binds

B4: MNV:AP1 (PrP-Amp) (ssRNA)
RNA: GGGUUCAUAGCCUAUUCGGCUUCGCGCAUGGGAAUUUGAGGGACGAUGGGGAAGUGGGAGCGCGUUUUAAAGGACCUUUUUCCCUCGCGUAGCUAGCUACGCGAGGUGACCCCCCGAAGGGGGGUGCCCC
Q: How did the Kd [7] turn out when B4 was run?
A: The Kd was 3.8 nM.

Q: Does B4 bind ([2]; G4 (AP1 insert))?
A: Result: no binding
